From article PMC6877644, “JASPer controls interphase histone H3S10 phosphorylation by chromosomal kinase JIL-1 in Drosophila”

Legend:
JIL-1 = biological target: T1, JIL-1 (Drosophila melanogaster, UniProt Q9V3I5 1-1207); assay: EMSA; 70 nM DNA; DNA EMSA: 50 mM HEPES pH 7.6, 50 mM NaCl, 10% glycerol, 2 mM MgCl2, 10% BSA, RT 10 min; RNA EMSA: 25 mM HEPES pH 7.6, 100 mM KCl, 3 mM MgCl2, 1 mM DTT, 5% glycerol, 100 ug/mL yeast tRNA, 20 C 15 min; nucleosome pull-down: 20 mM Tris/Cl pH 7.5, 50 mM NaCl, 5 mM EDTA, 0.1% Tween 20, 4 C 4 h; details: protein: recombinant; tags: N-terminal FLAG; label: Cy5; blunt
T1 sequence: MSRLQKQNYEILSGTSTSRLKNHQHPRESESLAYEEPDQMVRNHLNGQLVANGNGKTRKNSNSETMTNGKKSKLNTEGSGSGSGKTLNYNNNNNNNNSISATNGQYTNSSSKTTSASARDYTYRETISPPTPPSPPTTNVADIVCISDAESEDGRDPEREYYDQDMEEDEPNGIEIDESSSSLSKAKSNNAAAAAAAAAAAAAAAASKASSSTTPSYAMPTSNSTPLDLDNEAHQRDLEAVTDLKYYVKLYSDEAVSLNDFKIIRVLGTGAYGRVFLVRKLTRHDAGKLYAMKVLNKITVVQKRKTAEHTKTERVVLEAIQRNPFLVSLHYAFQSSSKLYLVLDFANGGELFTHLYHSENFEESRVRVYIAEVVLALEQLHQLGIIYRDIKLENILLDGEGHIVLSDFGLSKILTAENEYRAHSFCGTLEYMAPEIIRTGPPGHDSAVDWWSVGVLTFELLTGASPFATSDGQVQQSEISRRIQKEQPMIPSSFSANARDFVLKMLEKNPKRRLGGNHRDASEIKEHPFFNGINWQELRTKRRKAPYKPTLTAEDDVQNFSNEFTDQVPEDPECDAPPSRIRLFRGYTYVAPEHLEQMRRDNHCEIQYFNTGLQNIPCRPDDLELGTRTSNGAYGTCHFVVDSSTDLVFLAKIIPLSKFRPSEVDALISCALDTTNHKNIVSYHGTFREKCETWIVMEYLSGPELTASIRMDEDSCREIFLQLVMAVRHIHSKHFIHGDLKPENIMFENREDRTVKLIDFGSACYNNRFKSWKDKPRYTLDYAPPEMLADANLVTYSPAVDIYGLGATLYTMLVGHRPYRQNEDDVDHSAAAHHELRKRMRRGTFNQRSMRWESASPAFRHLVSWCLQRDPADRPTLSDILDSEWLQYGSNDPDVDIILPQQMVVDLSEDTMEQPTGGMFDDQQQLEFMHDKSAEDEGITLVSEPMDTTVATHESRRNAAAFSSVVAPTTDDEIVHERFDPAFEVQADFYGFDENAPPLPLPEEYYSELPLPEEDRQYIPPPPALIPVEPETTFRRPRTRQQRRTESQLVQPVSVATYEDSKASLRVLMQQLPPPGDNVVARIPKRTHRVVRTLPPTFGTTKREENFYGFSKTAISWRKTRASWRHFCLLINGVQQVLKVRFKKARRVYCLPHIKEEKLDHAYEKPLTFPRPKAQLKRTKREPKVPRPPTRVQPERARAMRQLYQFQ

JASPer = biological target: T2, JASPer (Drosophila melanogaster, UniProt Q9VAA9 1-475); assay: EMSA; 70 nM DNA; 9-fold molar excess of JASPer shifts all DNA; at least three retarded bands; DNA EMSA: 50 mM HEPES pH 7.6, 50 mM NaCl, 10% glycerol, 2 mM MgCl2, 10% BSA, RT 10 min; RNA EMSA: 25 mM HEPES pH 7.6, 100 mM KCl, 3 mM MgCl2, 1 mM DTT, 5% glycerol, 100 ug/mL yeast tRNA, 20 C 15 min; nucleosome pull-down: 20 mM Tris/Cl pH 7.5, 50 mM NaCl, 5 mM EDTA, 0.1% Tween 20, 4 C 4 h; details: protein: recombinant; tags: C-terminal FLAG; label: Cy5; blunt
T2 sequence: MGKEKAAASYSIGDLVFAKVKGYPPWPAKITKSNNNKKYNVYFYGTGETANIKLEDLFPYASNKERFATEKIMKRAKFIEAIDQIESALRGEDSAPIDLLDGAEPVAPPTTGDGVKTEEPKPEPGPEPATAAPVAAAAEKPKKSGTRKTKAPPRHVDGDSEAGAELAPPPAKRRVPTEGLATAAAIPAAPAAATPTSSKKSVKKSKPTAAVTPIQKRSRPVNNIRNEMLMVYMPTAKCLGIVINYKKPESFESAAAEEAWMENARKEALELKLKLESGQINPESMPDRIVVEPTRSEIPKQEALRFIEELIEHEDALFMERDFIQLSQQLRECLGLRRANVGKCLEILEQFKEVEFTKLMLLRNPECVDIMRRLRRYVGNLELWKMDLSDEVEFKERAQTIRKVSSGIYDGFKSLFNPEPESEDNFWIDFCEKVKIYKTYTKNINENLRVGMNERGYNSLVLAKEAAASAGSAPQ

B1: 40 bp dsDNA (end of 601 positioning sequence) (dsDNA)
DNA 1: CCTGGAGAATCCCGGTGCCGAGGCCGCTCAATTGGTCGTA
DNA 2: TACGACCAATTGAGCGGCCTCGGCACCGGGATTCTCCAGG
B1: no binding (JIL-1); binds (JASPer).
